First the molecules themselves.
T1: BSA-modified peptide antigen FFTYHIRHGEVHC (SEQ ID NO: 1) (human, also: BSA carrier conjugate)
T1 construct: also called peptide corresponding to positions 633-644 of PAD4
T1 peptide: FFTYHIRHGEVHC

B1: P1 (antibody, V domains shown)
VH: AVTLDESGGGLQTPGGGLSLICKASGFHMRSYAMNWVRQAPGKGLEFVAGIDNSGRYRNYGAAVKGRATISRDNGQSTVRLQLNNLRAEDTGIYYCAKNFDVGGDGCDWSSGCIDAWGHGTEVIVS
VL: ASTQPSSVSANPGETVKITCSGGSSTYYGWYQQKSPGSAPVTVIYQNTKRPSGLSSRFSGSKSGSTATLTITGVQAEDEAVYFCGGYDTRTYAGIFGAGTTLTVL
notes: Chicken variable regions recombined into mouse chimeric antibody (IgG1) expression vectors; also called anti-PAD4 antibody P1; P1 etc
B2: P3 (antibody, V domains shown)
VH: B1 VH with F27S, H28T, M29I, R58T, F100V, G103A, D105Y, A116T
VL: B1 VL with S6A, Q46E, K49N, G53D, L54I, S55P, E77D, T89R, R90T, T91N
notes: Chicken variable regions recombined into mouse chimeric antibody (IgG1) expression vectors; also called anti-PAD4 antibody P3; P1 etc
B3: P2 (antibody, V domains shown)
VH: B1 VH with G17A, I21V
VL: B1 VL with S6A, K49N, G53D, L54I, S55P, T89R, R90S, T91N
notes: Chicken variable regions recombined into mouse chimeric antibody (IgG1) expression vectors; also called anti-PAD4 antibody P2; P1 etc
B4: P4 (antibody, V domains shown)
VH: B1 VH with H28S, S54T, R58T, N59G, A62S, I93T, F100V, G103A, D105S, I124T
VL: B1 VL
notes: Chicken variable regions recombined into mouse chimeric antibody (IgG1) expression vectors; also called anti-PAD4 antibody P4; P1 etc

Positions count from the first letter of the chain named. Ends that are not written are not given here.

In the first experiment the target is T2, human PAD4 (Peptidylarginine deiminase 4) (human, UniProt Q9UM07 1-663). Description: cell-based or functional assay.
T2 sequence (Q9UM07 whole entry): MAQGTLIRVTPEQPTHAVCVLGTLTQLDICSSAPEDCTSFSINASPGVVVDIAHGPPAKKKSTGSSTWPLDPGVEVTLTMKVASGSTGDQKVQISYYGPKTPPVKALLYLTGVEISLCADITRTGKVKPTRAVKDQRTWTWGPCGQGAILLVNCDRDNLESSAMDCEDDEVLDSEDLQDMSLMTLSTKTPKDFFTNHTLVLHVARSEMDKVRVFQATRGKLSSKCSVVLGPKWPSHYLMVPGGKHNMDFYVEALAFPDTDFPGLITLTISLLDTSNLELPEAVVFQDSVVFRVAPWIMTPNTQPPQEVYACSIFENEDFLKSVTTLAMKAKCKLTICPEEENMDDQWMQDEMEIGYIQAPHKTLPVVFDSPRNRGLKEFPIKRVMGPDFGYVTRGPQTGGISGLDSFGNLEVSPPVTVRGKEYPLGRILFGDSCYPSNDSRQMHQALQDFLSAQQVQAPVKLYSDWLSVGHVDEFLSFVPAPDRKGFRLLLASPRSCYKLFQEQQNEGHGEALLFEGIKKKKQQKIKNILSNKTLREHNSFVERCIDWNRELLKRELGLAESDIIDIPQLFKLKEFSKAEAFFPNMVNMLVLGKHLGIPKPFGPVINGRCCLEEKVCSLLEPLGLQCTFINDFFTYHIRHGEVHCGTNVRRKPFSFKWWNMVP
For B1, the “inhibition rate of citrullinating activity of active PAD4 (BAEE substrate, colorimetric)” value (“inhibition rate” below) was determined as 63%.

With B2, the “inhibition rate” value was 80%.

On to B3, for which the “inhibition rate” value is 62%.

Turning to B4, the “inhibition rate” value worked out at 82%.

The target in a further experiment is T1, BSA-modified peptide antigen …. Briefly: ELISA, culture supernatant of CHO cells on immobilised BSA-modified peptide. A general note: ELISA stands for enzyme-linked immunosorbent assay.
In the case of B2, the binding result is “binds”.

B3: the binding result is listed as “binds”.

The next experiment has as its target T2, human PAD4 (Peptidylarginine deiminase …). Description: SPR (Biacore T200), antibody captured on rabbit anti-mouse polyclonal antibody on CM5 chip, human PAD4 as analyte. On the technique in general: SPR reads the build-up and loss of mass on a sensor chip optically.
What is called Kd is the free concentration of one partner at which half of the binding sites on the other are occupied at equilibrium, for simple one-to-one binding. Read a low Kd as tighter binding. B1 returned a dissociation constant (Kd) of 73 nM.

B2 registered an equilibrium dissociation constant (Kd) of 24 nM. This Kd lies about 3-fold lower than the previous one.

Take B3: the Kd turned out to be 31 nM. This Kd and that of the molecule before are within 1.5-fold of each other.

On to B4, for which binding was characterised by a dissociation constant (Kd) of 15 nM.

Values taken from patent WO2019131769A1 (dated 2019).
